4 molecules from patent US20110177070A1 (EMERGENT PRODUCT DEVELOPMENT SEATLLE, published 2011) can be followed below.

In one test the target is T1, recombinant human sIL-6R (human, UniProt P08887 20-358, limits assumed).
T1 construct: Bought soluble receptor; also called human soluble IL6R; IL6R alone
T1 sequence (looked up): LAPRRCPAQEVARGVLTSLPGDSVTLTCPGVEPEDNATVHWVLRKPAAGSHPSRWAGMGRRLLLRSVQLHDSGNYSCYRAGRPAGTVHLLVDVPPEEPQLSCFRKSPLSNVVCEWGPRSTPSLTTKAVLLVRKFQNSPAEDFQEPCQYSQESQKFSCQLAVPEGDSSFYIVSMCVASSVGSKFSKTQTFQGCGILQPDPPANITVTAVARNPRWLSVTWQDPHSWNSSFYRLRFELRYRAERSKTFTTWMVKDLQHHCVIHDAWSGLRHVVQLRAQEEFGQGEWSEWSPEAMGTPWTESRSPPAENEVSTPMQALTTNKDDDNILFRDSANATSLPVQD
Description: sandwich ELISA: Xceptor captured on anti-human IgG-Fc, sIL-6R, anti-human IL-6R-biotin. How it is done: Added to each well of a 96-well plate was 100 μl goat anti-human IgG-Fc (ICN Pharmaceuticals, Costa Mesa, Calif.) from a 2 μg/ml solution in PBS, pH 7.2-7.4, The plates were covered, and incubated overnight at 4° C. After washing four times with PBS-T, 250 μl Blocking buffer (PBS-T with 3% BSA or 10% normal goat serum) was added to each well, the plate was covered, and incubated at room temperature for 2 hours (or at 4° C. overnight). After washing the plate three times with PBS-T, added in duplicate wells to the anti-human IgG-Fc coated plate was 100 μl/well Xceptor TNFRSF1B::anti-HIL6 samples, positive control anti-human IL-6R(R&D Systems, Minneapolis, Minn.) and negative controls human IgG or human gp130-Fc chimera (R&D Systems), each serially diluted three-fold in Working buffer starting at 300 ng/ml, the plate was covered, and incubated at room temperature for about 1 to 2 hours. After washing the plate five times with PBS-T, added in duplicate wells was 100 μl/well recombinant human sIL-6R(R&D Systems) from a 75 pM solution in Working buffer, the plate was covered, and incubated at room temperature for about 1 to 2 hours. After washing the plate five times with PBS-T, added 100 μl/well anti-human IL-6R-biotin (R&D Systems) from a 100 ng/ml solution in Working buffer, the plate was covered, and incubated at room temperature for about 1 to 2 hours. After washing the plate five times with PBS-T, 100 μl per well horse radish peroxidase-conjugated streptavidin (Zymed, San Francisco, Calif.) diluted 1:4,000 in Working buffer was added, the plate was covered, and incubated at room temperature for 30 minutes. After washing the plate six times with PBS-T, 100 μl per well 3,3,5,5-tetramentylbenzidine (TMB) substrate solution (Pierce, Rockford, Ill.) was added for about 3 to 5 minutes and then the reaction was stopped with 50 μl Stop buffer (1N H₂SO₄) per well. The absorbance of each well was read at 450 nm.
A general note: An ELISA detects its analyte on a solid surface through an enzyme-linked reagent.

The target of a further test is T2, recombinant human TNF-α (human, UniProt P01375 77-233).
T2 construct: also called rhTNF-α
Description: sandwich ELISA: Xceptor captured on anti-human IgG-Fc, 2 ng/ml TNF-α, anti-human TNF-α-biotin. The procedure:
Added to each well of a 96-well plate was 100 μl goat anti-human IgG-Fc (ICN Pharmaceuticals, Costa Mesa, Calif.) from a 2 μg/ml solution in PBS, pH 7.2-7.4. The plate was covered, and incubated overnight at 4° C. After washing four times with PBS-T, 250 μl Blocking buffer was added to each well, the plate was covered, and incubated at room temperature for 2 hours (or at 4° C. overnight). After washing the plate three times with PBS-T, added in duplicate wells to the anti-human IgG-Fc coated plate was 100 μl/well Xceptor TNFRSF1B::anti-HIL6 samples, positive controls Enbrel® (etanercept) and recombinant human TNFR2 (TNFRSF1B)-Fc chimera (R&D Systems, Minneapolis, Minn.), and negative controls human IgG or human gp130-Fc chimera (R&D Systems), each serially diluted three-fold in Working buffer starting at 300 ng/ml, the plate was covered, and incubated at room temperature for about 1 to 2 hours. After washing the plate five times with PBS-T, added in duplicate wells was 100 μl/well recombinant human TNF-α (R&D Systems) from a 2 ng/ml solution in Working buffer, the plate was covered, and incubated at room temperature for about 1 to 2 hours. After washing the plate five times with PBS-T, added 100 μl/well anti-human TNF-α-biotin (R&D Systems) from a 200 ng/ml solution in Working buffer, the plate was covered, and incubated at room temperature for about 1 to 2 hours. After washing the plate five times with PBS-T, 100 μl per well horse radish peroxidase-conjugated streptavidin (Jackson ImmunoResearch, West Grove, Pa.) diluted 1:1,000 in Working buffer was added, the plate was covered, and incubated at room temperature for 30 minutes. After washing the plate six times with PBS-T, 100 μl per well 3,3,5,5-tetramentylbenzidine (TMB) substrate solution (Pierce, Rockford, Ill.) was added for about 3 to 5 minutes and then the reaction was stopped with 50 μl Stop buffer (1N H₂SO₄) per well. The absorbance of each well was read at 450 nm.

T2 sequence (P01375 77-233 limits assumed): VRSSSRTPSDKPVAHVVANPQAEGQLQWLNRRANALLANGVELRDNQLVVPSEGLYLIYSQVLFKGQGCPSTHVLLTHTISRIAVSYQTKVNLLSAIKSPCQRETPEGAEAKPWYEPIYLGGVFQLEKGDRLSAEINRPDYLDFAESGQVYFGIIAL

B1: Xceptor fusion protein TRU(X6T)-1019 (Fc fusion)
chain: EVQLLESGGGLVQPGGSLRLSCAASGFTFSWYLMHWVRQAPGKGLEWVSGIWPSGGHTLYADSVKGRFTISRDNSKNTLYLQMNSLRAEDTAVYYCAREPLLWFGELSYNWFDPWGQGTLVTVSSGGGGSGGGGSGGGGSQDIQMTQSPSSVSASVGDRVTITCRASQGISSWLAWYQQKPGKAPKLLIYAASSLQSGVPSRFSGSGSGTDFTLTISSLQPEDFATYYCQQANSFPLTFGGGTKVEIKTGEPKSSDKTHTCPPCPAPEAAGAPSVFLFPPKPKDTLMISRTPEVTCVVVDVSHEDPEVKFNWYVDGVEVHNAKTKPREEQYNSTYRVVSVLTVLHQDWLNGKAYACAVSNKALPAPIEKTISKAKGQPREPQVYTLPPSRDELTKNQVSLTCLVKGFYPSDIAVEWESNGQPENNYKTTPPVLDSDGSFFLYSKLTVDKSRWQQGNVFSCSVMHEALHNHYTQKSLSLSPGQRHNNSSLNTRTQKARHSPNSLPAQVAFTPYAPEPGSTCRLREYYDQTAQMCCSKCSPGQHAKVFCTKTSDTVCDSCEDSTYTQLWNWVPECLSCGSRCSSDQVETQACTREQNRICTCRPGWYCALSKQEGCRLCAPLRKCRPGFGVARPGTETSDVVCKPCAPGTFSNTTSSTDICRPHQICNVVAIPGNASMDAVCTSTSPTRSMAPGAVHLPQPVSTRSQHTQPTPEPSTAPSTSFLLPMGPSPPAEGSTGD
B1: the values for the binding result with recombinant human sIL-6R and with recombinant human TNF-α were “no binding (tested: Xceptor from 300 ng/ml; sIL-6R 75 pM)” and “binds”, respectively.

B2: Xceptor fusion protein TRU(XT6)-1019 (Fc fusion)
chain: LPAQVAFTPYAPEPGSTCRLREYYDQTAQMCCSKCSPGQHAKVFCTKTSDTVCDSCEDSTYTQLWNWVPECLSCGSRCSSDQVETQACTREQNRICTCRPGWYCALSKQEGCRLCAPLRKCRPGFGVARPGTETSDVVCKPCAPGTFSNTTSSTDICRPHQICNVVAIPGNASMDAVCTSTSPTRSMAPGAVHLPQPVSTRSQHTQPTPEPSTAPSTSFLLPMGPSPPAEGSTGDTGEPKSSDKTHTCPPCPAPEAAGAPSVFLFPPKPKDTLMISRTPEVTCVVVDVSHEDPEVKFNWYVDGVEVHNAKTKPREEQYNSTYRVVSVLTVLHQDWLNGKAYACAVSNKALPAPIEKTISKAKGQPREPQVYTLPPSRDELTKNQVSLTCLVKGFYPSDIAVEWESNGQPENNYKTTPPVLDSDGSFFLYSKLTVDKSRWQQGNVFSCSVMHEALHNHYTQKSLSLSPGQRHNNSSLNTRTQKARHSPNSEVQLLESGGGLVQPGGSLRLSCAASGFTFSWYLMHWVRQAPGKGLEWVSGIWPSGGHTLYADSVKGRFTISRDNSKNTLYLQMNSLRAEDTAVYYCAREPLLWFGELSYNWFDPWGQGTLVTVSSGGGGSGGGGSGGGGSQDIQMTQSPSSVSASVGDRVTITCRASQGISSWLAWYQQKPGKAPKLLIYAASSLQSGVPSRFSGSGSGTDFTLTISSLQPEDFATYYCQQANSFPLTFGGGTKVEIK
notes: also called Xceptor TNFRSF1B::anti-HIL6
As for B2, the binding result with recombinant human sIL-6R is given as “no binding (tested: Xceptor from 300 ng/ml; sIL-6R 75 pM)”; in the test with recombinant human TNF-α, “binds”.

B3: Xceptor fusion protein TRU(XT6)-1058 (Fc fusion)
chain: LPAQVAFTPYAPEPGSTCRLREYYDQTAQMCCSKCSPGQHAKVFCTKTSDTVCDSCEDSTYTQLWNWVPECLSCGSRCSSDQVETQACTREQNRICTCRPGWYCALSKQEGCRLCAPLRKCRPGFGVARPGTETSDVVCKPCAPGTFSNTTSSTDICRPHQICNVVAIPGNASMDAVCTSTSPTRSMAPGAVHLPQPVSTRSQHTQPTPEPSTAPSTSFLLPMGPSPPAEGSTGDTGEPKSSDKTHTCPPCPAPEAAGAPSVFLFPPKPKDTLMISRTPEVTCVVVDVSHEDPEVKFNWYVDGVEVHNAKTKPREEQYNSTYRVVSVLTVLHQDWLNGKAYACAVSNKALPAPIEKTISKAKGQPREPQVYTLPPSRDELTKNQVSLTCLVKGFYPSDIAVEWESNGQPENNYKTTPPVLDSDGSFFLYSKLTVDKSRWQQGNVFSCSVMHEALHNHYTQKSLSLSPGQRHNNSSLNTRTQKARHSPNSEVQLLESGGGLVQPGGSLRLSCAASGFTFSMYTMHWVRQAPGKGLEWVSWISPSGGWTKYADSVKGRFTISRDNSKNTLYLQMNSLRAEDTAVYYCAVSPWGGPFDYWGQGTLVTVSSGGGGSGGGGSGGGGSQDIQMTQSPSTLSASVGDRVTITCRASQSISSWLAWYQQKPGKAPKLLIYKASTLESGVPSRFSAGGSGTEFTLTISSLQPDDFGTYYCQQYNSYSLTFGGGTKVEII
Regarding B3, the results for the binding result in the test with recombinant human sIL-6R and with recombinant human TNF-α were “no binding (tested: Xceptor from 300 ng/ml; sIL-6R 75 pM)” and “binds”, respectively.

B4: Xceptor fusion protein TRU(XT6)-1002 (Fc fusion)
chain: LPAQVAFTPYAPEPGSTCRLREYYDQTAQMCCSKCSPGQHAKVFCTKTSDTVCDSCEDSTYTQLWNWVPECLSCGSRCSSDQVETQACTREQNRICTCRPGWYCALSKQEGCRLCAPLRKCRPGFGVARPGTETSDVVCKPCAPGTFSNTTSSTDICRPHQICNVVAIPGNASMDAVCTSTSPTRSMAPGAVHLPQPVSTRSQHTQPTPEPSTAPSTSFLLPMGPSPPAEGSTGDTGEPKSSDKTHTCPPCPAPEAAGAPSVFLFPPKPKDTLMISRTPEVTCVVVDVSHEDPEVKFNWYVDGVEVHNAKTKPREEQYNSTYRVVSVLTVLHQDWLNGKAYACAVSNKALPAPIEKTISKAKGQPREPQVYTLPPSRDELTKNQVSLTCLVKGFYPSDIAVEWESNGQPENNYKTTPPVLDSDGSFFLYSKLTVDKSRWQQGNVFSCSVMHEALHNHYTQKSLSLSPGQRHNNSSLNTRTQKARHSPNSEVQLLESGGGLVQPGGSLRLSCAASGFTFSFYQMHWVRQAPGKGLEWVSGIYPSGGYTKYADSVKGRFTISRDNSKNTLYLQMNSLRAEDTAVYYCARDLGYGSSWYYFDYWGQGTLVTVSSGGGGSGGGGSGGGGSQSALTQPASVSGSPGQSITISCSGTDSDVGGYNHVSWYQQHPGKAPKLIIYDVDHRPSGISNRFSGSKSGNTASLTISGLQAEDEADYYCSSYRSGSTYVFGTGTKVTVL
notes: as for B2
For B4, the binding result is given as “no binding (tested: Xceptor from 300 ng/ml; sIL-6R 75 pM)” in the test with recombinant human sIL-6R and “binds” with recombinant human TNF-α.
